{
  "source": "paper PMC11617747",
  "about": "(Heliyon, 2024)",
  "binders": {"B1": {"name": "C-terminal domain of Mycobacterium tuberculosis MabR (Rv2242), residues 161-414 (domain or fragment)", "chain": "ARGTWDSRMEASVVDAVVRGDTGPELLSRAAALNWDTTAPATVLVGTPAPGPNGSNSDGDSERASQDVRDTAARHGRAALTDVHGTWLVAIVSGQLSPTEKFLKDLLAAFADAPVVIGPTAPMLTAAHRSASEAISGMNAVAGWRGAPRPVLARELLPERALMGDASAIVALHTDVMRPLADAGPTLIETLDAYLDCGGAIEACARKLFVHPNTVRYRLKRITDFTGRDPTQPRDAYVLRVAATVGQLNYPTPH"}, "B2": {"name": "N-terminal domain of Mycobacterium tuberculosis MabR (Rv2242), residues 1-160 (domain or fragment)", "chain": "MNDNQLAPVARPRSPLELLDTVPDSLLRRLKQYSGRLATEAVSAMQERLPFFADLEASQRASVALVVQTAVVNFVEWMHDPHSDVGYTAQAFELVPQDLTRRIALRQTVDMVRVTMEFFEEVVPLLARSEEQLTALTVGILKYSRDLAFTAATAYADAAE"}, "B3": {"name": "23-bp FAS-II promoter dsDNA (dsDNA)", "DNA 1": "GTTTTGTTGGTTATATACAAAAA", "DNA 2": "TTTTTGTATATAACCAACAAAAC"}},
  "key": {"crystal structure": {"target": "the molecule itself", "test": "crystal structure"}, "SEC": {"target": "the molecule itself", "test": "SEC"}, "N-MabR": {"target": "T1, N-MabR (Mycobacterium tuberculosis, UniProt P9WPH5 1-160)", "T1 sequence": "B2 chain", "test": "EMSA; up to 20 uM protein; […], room temperature 30 min; ITC: 50 mM Tris pH 7.5, 150 mM NaCl, 20 C", "conditions": "protein: recombinant; tags: N-terminal 6xHis (pET28a); chain copies: 2; blunt"}, "C-MabR [1]": {"target": "T2, C-MabR (Mycobacterium tuberculosis, UniProt P9WPH5 161-414)", "T2 sequence": "B1 chain", "test": "TSA (isothermal analysis); 46 C, apparent; […], room temperature 30 min; ITC: 50 mM Tris pH 7.5, 150 mM NaCl, 20 C", "conditions": "protein: recombinant; tags: N-terminal 6xHis (pET28a); chain copies: 2; blunt"}, "C-MabR [2]": {"target": "T2, C-MabR", "test": "ITC; 20 C; 50 mM Tris pH 7.5, 150 mM NaCl; […]; […], room temperature 30 min; ITC: 50 mM Tris pH 7.5, 150 mM NaCl, 20 C", "conditions": "protein: recombinant; tags: N-terminal 6xHis (pET28a); chain copies: 2; blunt"}},
  "data": [
    {"binder": "B1", "values": [
      {"measurement": "binding result", "setting": "crystal structure", "result": "binds"}
    ]},
    {"binder": "B2", "values": [
      {"measurement": "stoichiometry N", "setting": "SEC", "result": 2}
    ]},
    {"binder": "B3", "values": [
      {"measurement": "binding result", "setting": "N-MabR", "result": "no binding"},
      {"measurement": "Kd", "setting": "C-MabR [1]", "result": "~1000", "unit": "nM"},
      {"measurement": "Kd", "setting": "C-MabR [2]", "result": 4300, "unit": "nM"}
    ]}
  ]
}
